B1: 6H8: anti-HSP90 monoclonal antibody produced by hybridoma FERM BP-11222; epitope … (antibody)
VH: QVQLQQSGPELVKPGASVRISCKASGYTFTSYYIHWVKQRPGQGLEWIGWIYPGNVNTKYNEKFKGKATLTADKSSSTAYMQLSSLTSEDSAVYFCARYGNYPFAYWGQGTLVTVSAAKTTAPSVYPLAPVCGDTTGSSVTLGCLVKGYF
VL: DVVMTQTPLSLPVSLGDQASISCRSSQSLVHSNGNTYLHWYLQKPGQSPKLLIYKVSNRFSGVPDRFSGSGSGTDFTLKISRVEAEDLGVYFCSQSTHVPPTFGGGTKLEIKRADAAPTVSIFPPSSEQLTSGGASVVCFLNNFYPKDINVKWKIDGS
B2: 6H8-OVA: high molecular weight conjugate of the 6H8 antibody and maleimide-activated OVA (conjugate)
VH: B1 VH
VL: B1 VL
chain: GSIGAASMEFCFDVFKELKVHHANENIFYCPIAIMSALAMVYLGAKDSTRTQINKVVRFDKLPGFGDSIEAQCGTSVNVHSSLRDILNQITKPNDVYSFSLASRLYAEERYPILPEYLQCVKELYRGGLEPINFQTAADQARELINSWVESQTNGIIRNVLQPSSVDSQTAMVLVNAIVFKGLWEKAFKDEDTQAMPFRVTEQESKPVQMMYQIGLFRVASMASEKMKILELPFASGTMSMLVLLPDEVSGLEQLESIINFEKLTEWTSSNVMEERKIKVYLPRMKMEEKYNLTSVLMAMGITDVFSSSANLSGISSAESLKISQAVHAAHAEINEAGREVVGSAEAGVDAASVSEEFRADHPFLFCIKHIATNAVLFFGRCVSP

Assays:
HSP90 = assay: Western blot of DC2.4 dendritic cell line extract with anti-HSP90 antibodies; assay type: binding; details: SDS-PAGE
Experimental: A BALE/c mouse was twice immunized with 50 μg of human recombinant HSP90α (prepared using an Escherichia coli expression vector supplied by Professor Takayuki Nemoto at the Nagasaki University School of Dentistry; see J. Biol. Chem. 272:26179-26187, 1997). The adjuvant used was 50 μl of TiterMax Gold (TiterMax, Ga., USA). Three days after final immunization, splenocytes were taken out from the immunized mouse and fused with P3U1 myeloma cells in a 1:1 ratio by means of polyethylene glycol 4000. The fused cells were seeded to a 96-well plate at 5000 cells/well and cultured in an HAT selection culture broth (an RPMI containing 10% FCS, supplemented with 0.1 mM hypoxanthine, 0.016 mM thymidine, and […] aminopterin) for 10 days. The antibodies against HSP90a present in the supernatants in wells containing proliferated cells were detected by ELISA. The hybridomas secreting the antibodies against HSP90α were re-seeded at 0.2 cells/well and further cultured using an HT selection culture broth (an RPMI containing 10% FCS, supplemented with 0.1 mM hypoxanthine and 0.016 mM thymidine) for 10 days. For the antibodies in the supernatants of proliferated cells, it was confirmed using ELISA and Western blotting that antibodies against HSP90 were secreted. […]

cell surface HSP90 [1] = assay: FACS staining of cell surface HSP90 on DC2.4 cells not subjected to membrane permeabilization; assay type: binding; details: DC2.4 cells not permeabilized, biotinylated antibody 1 μg/ml, 4° C.
Experimental: (§1) (1) 1.1 mg of the biotinylation reagent EZ-Link (registered trademark) Sulfo-NHS-Biotin (21217, Takara Bio Inc.) was dissolved in 250 μl of pure water (concentration 10 mM). 2 of the solution of the biotinylation reagent was added to 100 of an antibody protein (1 mg/ml), and the reaction was allowed to proceed while cooling on ice for 2 hours. After the reaction, the unreacted biotin reagent was removed using Centricon[5k] (Millipore). The reaction product was adjusted to a final concentration of 1 mg/ml and stored at 4° C. (2) DC2.4 not subjected to membrane permeabilization (1×10^6 cells/0.1 ml), along with the biotinylated anti-HSP90 antibody (1 μg/ml), was incubated at 4° C. for 30 minutes. For negative control, DC2.4 was likewise incubated in an antibody-free PBS. (3) After the unreacted antibody was removed, DC2.4 (1×10^6 cells/0.1 ml), along with PE-cy5 streptavidin (eBioscience, 15-4317-82, used at a concentration of 0.5 μg/ml), was incubated at 4° C. for 30 minutes. (4) After the unreacted PE-cy5 streptavidin was removed, the cells were analyzed by FACS (Becton Dickinson).
The right panels of FIGS. 2A and B show FACS data (histograms) for DC2.4 cells stained with each monoclonal antibody in the same manner as Example 2.

cell surface HSP90 [2] = assay: FACS staining of antigen-presenting cells with the 6H8 antibody; assay type: binding; details: DC2.4, mouse BMDC, human immature and mature DC, mouse peritoneal macrophages, J774
Experimental: as §1, with “Dickinson). […]” for “Dickinson).”

OT-I CD8+ T cells [3] = assay: In vivo OT-I CD8+ T cell proliferation by 6H8-OVA after 6H8 antibody given in advance; set-up: species or system mouse; details: 6H8 antibody 20 μg in advance, 6H8-OVA (0.3 mg), tail vein, 72 hours
Experimental: The 6H8 antibody or IgG2a [normal mouse IgG2a (nmIgG2a), 20 μg] was diluted with 200 μl of PBS and administered to B6 mice from the tail vein. As a control, a group of animals that received PBS alone was also prepared.
Subsequently, CFSE-labeled OT-I CD8^+ T cells ([…]) were suspended in 200 μl of RPMI and administered from the tail vein. Concurrently, 6H8-OVA (0.3 mg) diluted with 200 μl of PBS was administered from the tail vein. As a control, a group of animals that received PBS alone was also prepared.
72 hours later, splenocytes were recovered from each recipient mouse, and decay of CFSE intensity were measured using FACS Calibur (BD Biosciences) to confirm the proliferation of transferred cells.

OT-I CD8+ T cells [4] = assay: In vitro cross-presentation assay with BMDC of normal and FcRγ KO mouse; assay type: cell-based; details: BMDC pulsed 3 hours, co-culture with OT-I CD8+ T cells, IFNγ ELISA
Experimental: (1) A bone marrow-derived dendritic cells (BMDCs) were established from a normal mouse and an FcRγ KO mouse (supplied by Professor Akira Shibuya, Immunology, Life System Medical Sciences, Majors of Medical Sciences, Graduate School of Comprehensive Human Sciences, University of Tsukuba) as described below. Bone marrow was recovered from a mouse femur and tibia, and 1×10^6 cells each were cultured in a 24-well plate using 2 ml/well of a complete RPMI containing 20 ng/ml recombinant mouse GM-CSF (R&D). Half of the medium was exchanged for a fresh medium on day 3 of cultivation, and the cells obtained on day 5 of cultivation were used as the BMDC. (2) BMDCs at Day 5 induced in a GM-CSF-dependent manner was stained with biotin-6H8 (2.5 μg/ml) and streptavidin-APC (0.2 μg/ml), and its fluorescence was determined using FACS Canto (BD).
(1) A pellet of 1×10^6 BMDC cells at Day 5 induced in a GM-CSF-dependent manner were prepared in a 15-ml tube. After adding 400 μl of an antigen (6H8-OVA, OVA, or OVA257-264) thereto, the tube was incubated with 5% CO2 at 37° C. for 3 hours. The cells were fixed in 0.5% para-formaldehyde, after which the cells were washed with 0.1 M glycine and then with RPMI; thereafter, the density was adjusted to 1×10^5 cells/ml. (2) Concurrently, OT-I CD8^+ T cells were purified and the density was adjusted to 1×10^5 cells/ml. […]

| Molecule | detection of HSP90 in Western blot (HSP90) | recognition of cell surface HSP90 (FACS) (cell surface HSP90 [1]) | recognition of cell surface HSP90 on antigen-presenting cells (FACS) (cell surface HSP90 [2]) | effect on promotion of proliferation of CD8+ T cells by 6H8-OVA (OT-I CD8+ T cells [3]) | cross-presentation potential of FcRγ KO mouse-derived dendritic cells compared with normal mouse-derived dendritic cells (OT-I CD8+ T cells [4]) |
| --- | --- | --- | --- | --- | --- |
| B1 | detected HSP90 as a single band | recognized cell surface HSP90 with high sensitivity | recognized cell surface HSP90 on cells other than human PBMC-derived immature DC | enhanced | – |
| B2 | – | – | – | – | significantly decreased |
